Data reported in publication PMC4677475 (Journal of biomolecular screening, 2011).
Read-outs that look alike come from different tables or passages of the source.

How the values were obtained:
[1] = target: T1, His-tagged human GTP cyclohydrolase 1 (human, UniProt P30793 1-250); test: FRET or BRET
T1 sequence (looked up): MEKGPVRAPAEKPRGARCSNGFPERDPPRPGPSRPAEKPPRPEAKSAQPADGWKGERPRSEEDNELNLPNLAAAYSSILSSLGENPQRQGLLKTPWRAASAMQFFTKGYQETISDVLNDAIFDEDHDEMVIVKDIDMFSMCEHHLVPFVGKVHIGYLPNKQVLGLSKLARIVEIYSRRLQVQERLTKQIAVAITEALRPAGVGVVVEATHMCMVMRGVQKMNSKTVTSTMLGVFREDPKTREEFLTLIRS

[2] = target: T1, His-tagged human GTP cyclohydrolase 1; test: FRET or BRET; remark: listed apart in the source

Kd [1]: 52.1 nM
Kd [2]: 15.9 nM
B1: glutathione S-transferase (GST)-tagged human GTP cyclohydrolase feedback regulatory protein (natural protein)
chain: not shown
